From patent publication US20230067757A1 (NOVAROCK BIOTHERAPEUTICS, published 2023) come the findings set out here.

B1: Ms22 (antibody, V domains shown)
VH: QVQLKESGPGLVAPSQSLSITCTVSGFSLTSNGVHWVRQPPGKGLEWLGVIWAGGSTNYNSALMSRLSISKDNSKSQVFLKMNSLQTHDTAMYYCARDKYDGTGFDYWGQGTTLTVSS
VL: QIVLTQSPAIMSASPGEKVTMTCSASSSVSNMYWYQQKPGSSPRLLIYDTSNLASGVPVRFSGSGSGTSYSLTISRMEAEDAATYYCQQWSSYPYTFGGGTKLEIK
B2: Ms18 (antibody, V domains shown)
VH: QVQLKESGPGLVAPSQSLSITCTVSGFSLISYGVHWVRQPPGKGLEWLGVIWAGGNTNYNSALMSRLSISKDNSKSQVFLKMNSLQTDDTAMYYCARVYYGNSFDYWGQGTTLTVSS
VL: DIVMTQSPSSLTVTAGEKVTMSCKSSQSLLNSGNQKNYLTWYQQKPGQPPKLLIYWASTRQSGVPDRFTGSGSGTDFSLTISSVQAEDLAVYYCHNDYTYPLTFGAGTKLELK
B3: Ms20 (antibody, V domains shown)
VH: EIQLQQSGPELMKPGASVKISCKASGYSFTSYYMHWVKQSHGKSLEWIGYFDPYNGGTNYNQKFKGKATLTADKSSSTAYMHLSSLTSEDSAVYYCACYRFFAVWGAGTTVTVSS
VL: B2 VL with Q61E, S78T, H95Q, T99S
B4: Ms21 (antibody, V domains shown)
VH: DVQLVESGGGLVQPGGSRKLSCAASGFTFSTFGMHWVRQAPEKGLEWVAFINGDSSSIYYADTVKGRFTISRDNPKNILFLQMTSLRSEDTAMYYCARFARGNSFDYWGQGTTLTVSS
VL: B2 VL with L30F, G47W, Q61E, S78T, S82T, A86T, H95Q, N96I, D97G
B5: Ms13 (antibody, V domains shown)
VH: EVQLQQSGPELVKPGASVKMSCKASGYTFTRYIMHWVKQKPGQGLEWIGYFNPYNDDSKTSEKFKGKATLTSDKSSSTAYMEINSLTSEDSAVYYCAKLRQERIAYWGQGTLVTVSA
VL: DIQMNQSPSSLSASLGDTITITCHASQNIDVWLSWYQQKPGNFPKLLIYKASNLHTGVPSRFSGSGSGTGFTLTISSLQPEDIATYYCQQGQSYPLTFGAGTKLELK
B6: Ms15 (antibody, V domains shown)
VH: EVQLQQSGPELVRPGASVKMSCRASGYTFTNYIIHWVKQKPGQGLEWIGYFNPYNDGTKYNEIFKDKATLTSDKSSSTAYMELRSLTSEDSAVYYCAKLRQERIAYWGQGTLVTVSA
VL: B5 VL with A25V, F43I
B7: Ms17 (antibody, V domains shown)
VH: B5 VH with R31N, M34I, D57G, S58I, K59E, T60Y, I83L, N84S, A97S, I104F
VL: B5 VL with D30N, F43I
B8: Ms19 (antibody, V domains shown)
VH: EVQLQQSGPELVKPGASVKMSCKASGYTFTSYVIHWVKQKPGQGLEWIGYINPYNDGSKYNEKFKGKATLTSDKSSSTAYMELSSLTSEDSAVYYCAREGYGKRNALDYWGQGTSVTVSS
VL: DIVMTQSPSSLSVSAGERVTMSCKSSQSLLNSGNQKNYLAWYQQKPGQPPKLLIYGASTRESGVPDRFTGSGSGTDFTLIISSVQVEDLAVYYCQNDHFYPLTFGAGTKLELK
B9: Hu-11 (antibody, V domains shown)
VH: QVHLVQSGAEVKKPGASVKVSCKASGYTFTSYYIHWVRQAPGQGLEWMGIINPSGGNTIYAQKFQGRVTMTRDTSTTTVYVELSSLRSEDTAVYYCARDHYDILTGYYPLYYGMDVWGQGTTVTVSS
VL: SYELTQPLSVSVALGQTARITCGGNNIGSKNVHWYQQKPGQAPVLVIYRDSNRPSGIPERFSGSKSGNTATLTISRAQAGDEADYYCQVWDSSTAVFGGGTQLTAL
B10: Hu-1 (antibody, V domains shown)
VH: QVQLVESGGGVVQPGRSLRLSCAASGFTFSNYGMYWVRQAPGKGLEWVAVIWYDGSNKNYADSVKGRFTISRDNSKNTLNLQMNSLRAEDTAVYYCARRGYDILTGYDYYGMDVWGQGTTVTVSA
VL: QTVVTQEPSFSVSPGGTVTLTCGLSSGSVSTSYYPSWYQQTPGQAPRTLIYRTNTRSSGVPDRFSGSILGNKAALTISGAQAPDESNYYCVLYMGSGIWVFGGGTKLTVL
B11: Hu-8 (antibody, V domains shown)
VH: QVQLVESGGGVVQPGRSLRLSCAASGFTFSSYGMHWVRQAPGKGLEWVAVIWYDGSNKKYADSVKGRFTISRDNSKNTLYLQMNSLRAEDTAVYYCARRYDVLTAYPYYFYYNMDVWGPGTTVTVSS
VL: B10 VL with S25N, R52S, S78T, P83D, N87D
B12: Hu-13 (antibody, V domains shown)
VH: EVQLLESGGGLVQPGGSLRVACAASGFPLRSYAMSWVRQAPGKGLEWVSVTSGSGGSTYYADSVKGRFTISRDNSKSTVYLQMNSLRAEDTAVYYCAKDRGYDILTGYYDYFYGMDVWGQGTTVTVSS
VL: DIQMTQSPSSLSASVGDRVTITCRASQGIRNDLGWFQQKPGKAPKRLIYAASSLQSGVPSRFSGSGSGTEFTLTISSLQPEDFATYYCLQHNSYPYTFGQGTKLEIK
B13: NBL-014 (antibody, human IgG1, kappa, V domains shown)
VH: EVQLLESGGGLVQPGGSLRLSCAASGFTFSSFAMTWVRQAPGKGLEWVSSLSGSGRSTYYAASMKGRFTISRDNSKNTLYLQMNSLRAEDTAIYYCAKSLSYYHYYFDYWGQGTLVTVTS
VL: DIQLTQSPSFLSASVGDRVPITCRASQGISNFLAWYQQKPGKAPELLIHSASTLQSGVPSRFSGSGSGTEFTLTISNLQPQDFATYYCQQVNSYPLTFGGGTKVEIKR

Changes are numbered by the printed parent chain.

For one assay, the target named is T1, human claudin 18 isoform 1 (claudin 18.1) (human, UniProt P56856 1-261).
T1 construct: Recombinant on transfected CHO cells (CHO-CLDN18.1); also called CLDN18.1
T1 sequence (P56856 whole entry, canonical isoform): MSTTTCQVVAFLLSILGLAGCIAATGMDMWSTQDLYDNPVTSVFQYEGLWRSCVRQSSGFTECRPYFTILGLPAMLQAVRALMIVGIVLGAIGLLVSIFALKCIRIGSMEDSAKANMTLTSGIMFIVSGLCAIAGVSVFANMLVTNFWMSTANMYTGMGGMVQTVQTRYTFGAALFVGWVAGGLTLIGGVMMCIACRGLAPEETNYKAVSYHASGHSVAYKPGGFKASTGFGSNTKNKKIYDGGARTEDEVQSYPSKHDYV
Nature of the assay: imaging, CHO-CLDN18.1 cells, single concentration (FIG. 3A). As to the method: (§1) The specific cellular binding affinity of anti-Claudin18.2 antibodies was tested on CHO-CLDN18.2 (transfected CHO cell expressing recombinant human CLDN18.2) and CHO-CLDN18.1 (transfected CHO cell expressing recombinant human CLDN18.1) cells. The cells were plated in complete media containing F12 with 10% FBS, then incubated overnight at 37° C., anti-Claudin18.2 antibodies were serial diluted and added to the assay plates, incubated at 4° C. for 2 hours, followed by fixing cells and further staining the cells for 30 minutes with Alexa Fluor® 488 Goat Anti-Human IgG (H+L) secondary antibody, invitrogen Cat #A-11013 for detection. The binding was assessed by imaging the cells and quantifying the fluorescence intensity using a Biotek Cytation.
Consider B1, for which the binding result is reported as “no binding (tested: 10 µg/ml)”.
Consider B2, for which the binding result is “no binding (tested: 10 µg/ml)”.
On to B3, for which the binding result is recorded as “no binding (tested: 10 µg/ml)”.
For the molecule B4, the binding result was “no binding (tested: 10 µg/ml)”.
For the molecule B5, the binding result is listed as “no binding (tested: 10 µg/ml)”.
On to B6, for which the binding result is “no binding (tested: 10 µg/ml)”.
B7: the binding result is given as “no binding (tested: 10 µg/ml)”.
B8: the binding result is given as “no binding (tested: 10 µg/ml)”.

A further assay has as its target T2, human claudin 18 isoform 2 (claudin 18.2) (human).
T2 construct: Recombinant on transfected CHO cells (CHO-CLDN18.2) or endogenous on tumor cell lines PATU8988S, NUGC-4, KATOIII; the cell line is named under assay; also called CLDN18.2
Nature of the assay: imaging, PATU8988S cells (endogenous CLDN18.2); ++ = EC50 between 20 nM and 100 nM. As to the method: Tumor cells were plated in complete media containing RPMI1640 with +10% FBS, then incubated overnight at 37° C., Claudin18.2 antibodies were serial diluted and added to the assay plates, incubated at 4° C. for 2 hours, followed by fixing cells and further staining the cells for 30 minutes with Alexa Fluor® 488 Goat Anti-Human IgG (H+L) secondary antibody (invitrogen Cat #A-11013) for detection. The binding was assessed by imaging the cells and quantifying the fluorescence intensity using a Biotek Cytation.
As a reminder, the EC50 is the concentration at which the effect is half-maximal. Read a high EC50 as a need for much substance. The molecule B9 registered a concentration giving a half-maximal response (EC50) of 20 to 100 nM.
Regarding B10, the concentration giving a half-maximal response (EC50) lay in the range of 20 to 100 nM.
Same read-out and setting: under B11 stands 20 to 100 nM.
Same read-out and setting: under B12 stands 20 to 100 nM.

The target in a further assay is T2, human claudin 18 isoform 2 (claudin …). Nature of the assay: cell-based or functional assay.
As to B1, the “endocytosis derived cell toxicity EC50, CHO-18.2 cells (anti-IgG Fc-MMAF co-internalization)” value (“endocytosis derived cell toxicity EC50” below) amounted to 1.61 nM.
Consider B2, for which the “endocytosis derived cell toxicity EC50” value was 1.39 nM.
Consider B3, for which the “endocytosis derived cell toxicity EC50” value was 1.07 nM.
Same read-out and setting: the figure for B4 is 0.95 nM.
Still for that read-out and setting: the figure for B5 is 0.71 nM; for B6 it is 1.15 nM; for B7 it is 0.81 nM.
On to B8, for which the “endocytosis derived cell toxicity EC50” value was 1.36 nM.

For another assay the target is unchanged. Nature of the assay: cell-based or functional assay. The source holds these as a separate data set.
With B9, the “endocytosis derived cell toxicity EC50” value was 1.31 nM.
On the same count and under the same terms, the figure for B10 is 1.61 nM; for B11 it is 1 nM.
On the same count and under the same terms, the figure for B12 is 2.16 nM.

Another assay has the same target. Nature of the assay: immunofluorescence imaging, CHO-CLDN18.2 cells, serial dilution. How it is done: as §1
Take B1: a half-maximal effect (EC50) was put at 2.6 nM.
Same read-out and setting: under B2 stands 1.3 nM; under B3, 1.3 nM.
B4: the EC50 came to 1.5 nM.
Turning to B5, a half-maximal effect (EC50) was put at 1.2 nM.
For the molecule B6, the EC50 stood at 1.8 nM.
As to B7, the EC50 amounted to 1.4 nM.
Molecule B9 displayed a half-maximal effective concentration (EC50) of 17 nM.
Turning to B8, the concentration giving a half-maximal response (EC50) amounted to 2.3 nM.
With B10, the EC50 came out at 3.6 nM.
For the molecule B11, it took 3.7 nM to reach a half-maximal effect (EC50).
Molecule B12 registered a half-maximal effective concentration (EC50) of 5.6 nM.

The target of another assay is T1, human claudin 18 isoform 1 (claudin …). Nature of the assay: immunofluorescence imaging on CHO cells expressing human CLDN18.1, antibody at 10 µg/ml. How it is done: as §1
For the molecule B10, the binding result is given as “no binding (tested: 10 µg/ml)”.

The next assay addresses T2, human claudin 18 isoform 2 (claudin …). Nature of the assay: imaging, PATU8988S cells (endogenous CLDN18.2); +++ = EC50 between 2 nM and 20 nM.
B1 had an EC50 of 2 to 20 nM.
In the case of B2, the EC50 fell in the range of 2 to 20 nM.
B3 yielded an EC50 of 2 to 20 nM.
The same measure, in the same setting: the figure for B4 is 2 to 20 nM; for B5 it is 2 to 20 nM.
In turn, B6 gave an EC50 of 2 to 20 nM.
Molecule B7 returned a concentration giving a half-maximal response (EC50) of 2 to 20 nM.
In the case of B8, the half-maximal effective concentration (EC50) is 2 to 20 nM.

The target is the same in a further assay. Nature of the assay: cell-based or functional assay. This is another data set of the same source.
In the case of B13, the “ADCC EC50, CHO-claudin18.2 cells (human FcγRIIIa reporter bioluminescence)” value stood at 0.73 nM; the “ADCC EC50, NUGC-4 cells (human FcγRIIIa reporter bioluminescence)” value was determined as 0.4 nM; the “ADCC EC50, PATU8988S cells (human FcγRIIIa reporter bioluminescence)” value is 0.12 nM; the “CDC EC50, CHO-claudin18.2 cells (human serum, flow cytometry)” value was determined as 0.22 nM. Besides, the “fold improvement of CDC EC50 over PC1 (in-house iMAb36), CHO-claudin18.2 cells (human serum, flow cytometry)” value is roughly 10 fold.

The next assay has the same target. Nature of the assay: cell-based or functional assay. This is another data set of the same source.
B9: the “ADCC EC50, CHO-18.2 target cells (mouse FcγRIV reporter bioluminescence)” value (“ADCC EC50, CHO-18.2 target cells” below) is 1.51 nM.
With B10, the “ADCC EC50, CHO-18.2 target cells” value stood at 0.77 nM.
Take B11: the “ADCC EC50, CHO-18.2 target cells” value came out at 1.42 nM.
For B12, the “ADCC EC50, CHO-18.2 target cells” value amounted to 1.17 nM.
